T1: ASIC1 (recombinant: in vitro translated in proteoliposomes, expressed in Xenopus oocytes, reconstituted in planar lipid bilayers) (UniProt P78348)
T1 sequence: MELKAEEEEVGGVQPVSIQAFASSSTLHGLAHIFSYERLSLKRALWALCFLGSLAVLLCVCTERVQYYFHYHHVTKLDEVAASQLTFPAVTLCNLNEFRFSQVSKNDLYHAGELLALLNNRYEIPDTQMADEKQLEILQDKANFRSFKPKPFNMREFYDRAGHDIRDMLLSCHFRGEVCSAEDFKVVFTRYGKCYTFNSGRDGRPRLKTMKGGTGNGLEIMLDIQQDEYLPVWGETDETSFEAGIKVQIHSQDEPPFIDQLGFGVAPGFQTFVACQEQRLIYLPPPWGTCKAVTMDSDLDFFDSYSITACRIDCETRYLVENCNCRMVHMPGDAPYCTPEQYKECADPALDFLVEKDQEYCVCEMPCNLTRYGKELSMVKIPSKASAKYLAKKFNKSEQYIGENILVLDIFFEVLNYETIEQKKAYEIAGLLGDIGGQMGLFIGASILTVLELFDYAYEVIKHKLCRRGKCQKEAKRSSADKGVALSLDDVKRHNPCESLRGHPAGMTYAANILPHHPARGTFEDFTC

T2: ASIC1 (Homo sapiens, UniProt P78348)
T2 sequence (P78348 1-528): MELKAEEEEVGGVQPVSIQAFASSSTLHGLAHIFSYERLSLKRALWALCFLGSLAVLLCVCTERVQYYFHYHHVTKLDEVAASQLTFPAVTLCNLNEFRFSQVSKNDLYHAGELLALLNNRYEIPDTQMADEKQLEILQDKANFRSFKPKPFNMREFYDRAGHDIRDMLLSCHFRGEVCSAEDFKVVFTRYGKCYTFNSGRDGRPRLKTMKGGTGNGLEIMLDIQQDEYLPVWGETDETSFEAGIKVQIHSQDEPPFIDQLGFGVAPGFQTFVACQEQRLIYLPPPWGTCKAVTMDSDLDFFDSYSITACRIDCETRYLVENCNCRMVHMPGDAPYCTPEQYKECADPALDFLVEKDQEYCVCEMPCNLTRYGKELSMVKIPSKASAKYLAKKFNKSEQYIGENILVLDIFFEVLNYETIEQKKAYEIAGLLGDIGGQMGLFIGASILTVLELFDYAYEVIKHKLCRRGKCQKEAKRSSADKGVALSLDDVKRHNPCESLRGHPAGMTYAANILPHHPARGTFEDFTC


Tests used:
[1] = target: ASIC1+ASIC2+γ-hENaC heteromeric channel (co-expressed in Xenopus oocytes; oocyte membrane vesicles in planar lipid bilayers) (human) (UniProt P78348); assay: cell-based or functional assay
[2] = target: T1, ASIC1 (recombinant: in vitro translated in proteoliposomes, expressed in Xenopus oocytes, reconstituted in planar lipid bilayers)
ASIC1 = target: T2, ASIC1; assay: Wild-type ASIC1 in planar lipid bilayers, single channel recording; type: biochemical; conditions: PKC isoforms
Protocol: An expanded time scale is shown below each trace.
Wild-type ASIC1 incorporated into planar lipid bilayers at neutral pH or at acidic extracellular pH was also examined.
Membrane potential was held at −60 mV, and the pHo was step decreased to 4.0 for 10 s, and then returned to 7.4 for 30 s before repeating the sequence.
Control single channel were record for ASIC1 containing channels in bilayers bathed with symmetrical 100 mM NaCl, 10 mM MOPS, pH 6.2. Holding potential was +100 mV referred to the virtually grounded trans chamber. For illustration purposes, data shown were digitally filtered at 100 Hz using pCLAMP software (Axon Instruments) subsequent to acquisition of the analog signal filtered at 300 Hz with an 8-pole Bessel filter before acquisition at 1 ms per point. An expanded time scale is shown below each trace (FIG. 21).
Representative dwell-time histograms were constructed following the events analyses performed using pCLAMP software (Axon Instruments) on single channel recordings of 10 min in duration filtered at 300 Hz with an 8-pole Bessel filter before acquisition at 1 ms per point using pCLAMP software and hardware. The event detection thresholds were 50% in amplitude of transition between closed and open states, and 3 ms in duration. Closed and open time constants shown were determined by fitting the closed and open time histograms to the probability density function (Sigworth and Sine, 1987), and using the Simplex least square routine of pSTAT. Number of bins per decade in all histograms was 16.

[3] = target: T1, ASIC1 (recombinant: in vitro translated in proteoliposomes, expressed in Xenopus oocytes, reconstituted in planar lipid bilayers); assay: cell-based or functional assay

Molecule	ASIC1 activity in planar lipid bilayers (PKCβI and PKCβII added in combination) [2]	in vitro phosphorylation of ASIC1 [2]	effect on ASIC1 activity in bilayers (ASIC1)	further results
Syntaxin 1A GST fusion protein				decrease in channel open probability (Po) in planar lipid bilayers, 25 µM syntaxin 1A in the cis chamber [1]: 40%
PKCβII	PKC holoenzyme or the combination of PKCβI and PKCβII isoforms inhibited ASIC1.	PKC holoenzyme, PKCβI, PKCβII, PKCδ, PKCε, and PKCζ phosphorylated ASIC1 in vitro.		
PKCβI	PKC holoenzyme or the combination of PKCβI and PKCβII isoforms inhibited ASIC1.	PKC holoenzyme, PKCβI, PKCβII, PKCδ, PKCε, and PKCζ phosphorylated ASIC1 in vitro.		
PKCζ (enzyme, UniProt Q05513 1-592, looked up, species assumed) Protein kinase C zeta type: MPSRTGPKMEGSGGRVRLKAHYGGDIFITSVDAATTFEELCEEVRDMCRLHQQHPLTLKWVDSEGDPCTVSSQMELEEAFRLARQCRDEGLIIHVFPSTPEQPGLPCPGEDKSIYRRGARRWRKLYRANGHLFQAKRFNRRAYCGQCSERIWGLARQGYRCINCKLLVHKRCHGLVPLTCRKHMDSVMPSQEPPVDDKNEDADLPSEETDGIAYISSSRKHDSIKDDSEDLKPVIDGMDGIKISQGLGLQDFDLIRVIGRGSYAKVLLVRLKKNDQIYAMKVVKKELVHDDEDIDWVQTEKHVFEQASSNPFLVGLHSCFQTTSRLFLVIEYVNGGDLMFHMQRQRKLPEEHARFYAAEICIALNFLHERGIIYRDLKLDNVLLDADGHIKLTDYGMCKEGLGPGDTTSTFCGTPNYIAPEILRGEEYGFSVDWWALGVLMFEMMAGRSPFDIITDNPDMNTEDYLFQVILEKPIRIPRFLSVKASHVLKGFLNKDPKERLGCRPQTGFSDIKSHAFFRSIDWDLLEKKQALPPFQPQITDDYGLDNFDTQFTSEPVQLTPDDEDAIKRIDQSEFEGFEYINPLLLSTEESV		PKC holoenzyme, PKCβI, PKCβII, PKCδ, PKCε, and PKCζ phosphorylated ASIC1 in vitro.	Neither PKCε, PKCζ, nor their combination had any effect	ASIC1 activity in planar lipid bilayers [2]: Neither PKCε, PKCζ, nor their combination had any effect on ASIC1 activity in bilayers.; reversal of the PKCβI+PKCβII inhibition of ASIC1 activity in bilayers (PKCε and PKCζ in combination) [3]: 5 fold excess
PKCε: PKC isoform (protein, UniProt Q02156 1-737, looked up) Protein kinase C epsilon type: MVVFNGLLKIKICEAVSLKPTAWSLRHAVGPRPQTFLLDPYIALNVDDSRIGQTATKQKTNSPAWHDEFVTDVCNGRKIELAVFHDAPIGYDDFVANCTIQFEELLQNGSRHFEDWIDLEPEGRVYVIIDLSGSSGEAPKDNEERVFRERMRPRKRQGAVRRRVHQVNGHKFMATYLRQPTYCSHCRDFIWGVIGKQGYQCQVCTCVVHKRCHELIITKCAGLKKQETPDQVGSQRFSVNMPHKFGIHNYKVPTFCDHCGSLLWGLLRQGLQCKVCKMNVHRRCETNVAPNCGVDARGIAKVLADLGVTPDKITNSGQRRKKLIAGAESPQPASGSSPSEEDRSKSAPTSPCDQEIKELENNIRKALSFDNRGEEHRAASSPDGQLMSPGENGEVRQGQAKRLGLDEFNFIKVLGKGSFGKVMLAELKGKDEVYAVKVLKKDVILQDDDVDCTMTEKRILALARKHPYLTQLYCCFQTKDRLFFVMEYVNGGDLMFQIQRSRKFDEPRSRFYAAEVTSALMFLHQHGVIYRDLKLDNILLDAEGHCKLADFGMCKEGILNGVTTTTFCGTPDYIAPEILQELEYGPSVDWWALGVLMYEMMAGQPPFEADNEDDLFESILHDDVLYPVWLSKEAVSILKAFMTKNPHKRLGCVASQNGEDAIKQHPFFKEIDWVLLEQKKIKPPFKPRIKTKRDVNNFDQDFTREEPVLTLVDEAIVKQINQEEFKGFSYFGEDLMP			Neither PKCε, PKCζ, nor their combination had any effect	

— patent US20070092444A1, “Inhibition of inward sodium currents in cancer” (priority 2003, published 2007)
